Measurements from patent US20090291081A1 (AbbVie / Abbott, published 2009).
Where a chain is given by its changes, count along the chain named. Where “and” joins values, the source holds several entries; their conditions need not be identical. Equal values may be shown once.

T1: human IL-1α (human, UniProt P01583 113-271)
T1 sequence (looked up): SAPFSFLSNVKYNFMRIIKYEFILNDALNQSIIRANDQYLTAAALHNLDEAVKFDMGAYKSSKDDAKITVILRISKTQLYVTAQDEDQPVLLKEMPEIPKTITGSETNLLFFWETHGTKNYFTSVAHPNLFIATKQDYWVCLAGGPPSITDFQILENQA

T2: human IL-1α (human, UniProt P01583 113-271)
T2 construct: also called IL-1alpha; hIL-1α
T2 sequence (looked up): T1 sequence (looked up)

B1: ABT2-108/ABT1-122 Fab on yeast surface (Fab, V domains shown)
VH: EVQLLESGGGLVQPGGSLRLSCAASGFTFAEYTMMWVRQAPGKGLEWVSRIGQDGKNTYYADSVKGRFTISRDNSKNTLYLQMNSLRAEDTAVYYCAKYTGRVGVHHLFDYWGQGTLVTVSS
VL: DIQMTQSPSSLSASVGDRVTITCRASQPIWTELNWYQQKPGKAPKLLIYGSSSLQSGVPSRFSGSGSGTDFTLTISSLQPEDFATYYCQQFAYFPATFGQGTKVEIKR
B2: ABT2-108-606/ABT1-122 Fab on yeast surface (Fab, V domains shown)
VH: B1 VH with A61R, D62S
VL: B1 VL
B3: ABT2-108-617/ABT1-122 Fab on yeast surface (Fab, V domains shown)
VH: B1 VH with V103I, G104F, V105T
VL: B1 VL
B4: ABT2-108-602/ABT1-122 Fab on yeast surface (Fab, V domains shown)
VH: B1 VH with Y32E, T33K, M34Y
VL: B1 VL
B5: ABT2-108-608/ABT1-122 Fab on yeast surface (Fab, V domains shown)
VH: B1 VH with Y60T, A61R
VL: B1 VL
B6: ABT2-108-614/ABT1-122 Fab on yeast surface (Fab, V domains shown)
VH: B1 VH with V103I, G104L, V105R
VL: B1 VL
B7: ABT2-108-604/ABT1-122 Fab on yeast surface (Fab, V domains shown)
VH: B1 VH with I51V, G52T, Q53Y
VL: B1 VL
B8: ABT2-108-616/ABT1-122 Fab on yeast surface (Fab, V domains shown)
VH: B1 VH with V103I, G104Y, V105N
VL: B1 VL
B9: ABT2-108-605/ABT1-122 Fab on yeast surface (Fab, V domains shown)
VH: B1 VH with A61R, D62E, S63D
VL: B1 VL
B10: ABT2-108-612/ABT1-122 Fab on yeast surface (Fab, V domains shown)
VH: B1 VH with V103I, G104M, V105G
VL: B1 VL
B11: ABT2-108-601/ABT1-122 Fab on yeast surface (Fab, V domains shown)
VH: B1 VH with Y32E, T33S, M34W
VL: B1 VL
B12: ABT2-108-615/ABT1-122 Fab on yeast surface (Fab, V domains shown)
VH: B1 VH with Y59V, Y60I, A61R
VL: B1 VL
B13: ABT2-108-603/ABT1-122 Fab on yeast surface (Fab, V domains shown)
VH: B1 VH with G52T, Q53D, D54A
VL: B1 VL
B14: ABT2-108-538x/ABT1-122-511 hu IgG1/K wt (bispecific antibody, V domains shown)
VH: B1 VH with E31D, Y32E, T33G, G52T, Q53Y, D54S, V103I, G104L, V105G
VL: B1 VL with S56R, Q89K
B15: ABT2-108-538x/ABT1-122-750x hu IgG1/K wt (bispecific antibody, V domains shown)
VH: B1 VH with E31D, Y32E, T33G, G52T, Q53Y, D54S, V103I, G104L, V105G
VL: B1 VL with T20A, R24S, P28H, L33I, N34S, S52A, L54R, S56K, Q89K, A96N
B16: ABT2-108-538x/ABT1-95-A3 hu IgG1mut 234, 235/K (bispecific antibody, V domains shown)
VH: B1 VH with E31D, Y32E, T33G, G52T, Q53Y, D54S, V103I, G104L, V105G
VL: DIQMTQSPSSLSASVGDRVTITCRASKPGVRNMRWYQQKPGKAPKLLIYSVSYLEPGVPSRFSGSGSGTDFTLTISSLQPEDFATYHCLQGYRWPPTFGQGTKVEIKR
B17: ABT2-65-17/ABT1-141-25 hu IgG1/K wt (bispecific antibody, V domains shown)
VH: EVQLLESGGGLVQPGGSLRLSCVASGFTFEDYQMGWVRQAPGKGLEWVSSISAMGNRTYYADSVKGRFTISRDDSKNTLYLQMNSLRAEDTAVYYCAQNLVRLGRSRWMFDYWGQGTLVTVSS
VL: DIQMTQSPSSLSASVGDRVTITCRASQWIQKQLAWYQQKPGKAPKLLIYSSSYLQSGVPSRFSGSGSGTDFTLTISSLQPEDFATYYCQQHLRVPMTFGQGTKVEIKR
B18: ABT2-108/ABT1-95-3 hu IgG1/K wt (bispecific antibody, V domains shown)
VH: EVQLLESGGGLVQPGGSLRLSCAASGFTFAEYTMMWVRQAPGKGLEWVSRIGQDGKNTYYADSVKGRFTISRDNSKNTLYLQMNSLRAEDTAVYYCAKYTGRVGVHHLFDYWGQGTLVTSS
VL: B16 VL with K27Q, G29I, V30H, R31G, M33L, V51S, E55Q, P56S, L89Q, P96V
B19: ABT2-108/ABT1-141 hu IgG1/K wt (bispecific antibody, V domains shown)
VH: B18 VH
VL: DIQMTQSPSSLSASVGDRVTITCRASQWIQKQLAWYQQKPGKAPKLLIYSSSYLQSGVPRFSGSGSGTDFTLTISSLQPEDFATYYCQQHLRVPFTFGQGTKVEIKR
B20: IgG pairing ABT1-122-750X with ABT2-65-17 (bispecific antibody, V domains shown)
VH: B17 VH
VL: B1 VL with T20A, R24S, P28H, L33I, N34S, S52A, L54R, S56K, Q89K, A96N
B21: ABT2-65-17/ABT1-95-15 huIgG1/K wt (bispecific antibody, V domains shown)
VH: B17 VH
VL: B16 VL with K27Q, G29I, M33L, V51S, L89Q, P96V
B22: ABT1-207 (other)
VH: EVQLLESGGGLIQPGGSLRLSCAASGFTFGRYYMSWVRQAPGKGLEWVSSIDYLGTNTYYADSVKGRFTISRDNSKNTLYLQMNSLRAEDTAVYYCAKLTRIRPPNFDYWGQGTLVTVSS
notes: VH dAb
B23: ABT1-122-551 (other)
VL: B1 VL with S26K, Q27F, P28N, A43T
notes: VK dAb
B24: ABT1-122-552 (other)
VL: B1 VL with Q27L, P28G, I29V
notes: VK dAb
B25: ABT1-122-555 (other)
VL: B1 VL with A43T
notes: VK dAb
B26: ABT1-122-750MH (other)
VL: B1 VL with R24S, P28H, L33M, N34S, S52A, L54R, S56K, Y87H, Q89K, A96N
notes: VK dAb
B27: ABT1-122-508 (other)
VL: B1 VL with S56R
notes: VK dAb
B28: ABT1-122-750xH (other)
VL: DIQMTQSPSSLSASVGDRVAITCSASQHIWTEISWYQQKPGKAPKLLIYGSASRQKGVPSRFSGSGSGTDFTLTISSLQPEDFATYHCKQFAYFPNTFGQGTKVEIKR
notes: VK dAb
B29: ABT1-122-505 (other)
VL: B1 VL with Q89K
notes: VK dAb
B30: ABT1-122-750MT (other)
VL: B28 VL with A20T, I33M, A43T, H87Y
notes: VK dAb
B31: ABT1-122-513 (other)
VL: B1 VL with S52G, L54R, S56R, Q89K
notes: VK dAb
B32: ABT1-122-556 (other)
VL: B1 VL with Y87H
notes: VK dAb
B33: ABT1-122-750M (other)
VL: B28 VL with A20T, I33M, H87Y
notes: VK dAb
B34: ABT1-122-510 (other)
VL: B1 VL with A25F, Q27Y
notes: VK dAb
B35: ABT1-122-512 (other)
VL: B1 VL with S52A, S53K, L54R, S56R, Q89K
notes: VK dAb
B36: ABT1-95-A1 (other)
VL: B16 VL with K27R, M33L, S50H, Y53D, L89R, R93V, P96V, T97P, G99D
notes: VK dAb

target: T3, human IL-1β (human, UniProt P01584 117-269); assay: yeast surface Fab display, flow cytometry titration
T3 construct: also called hIL-1β; rhIL-1 beta

Row | EC50 [nM] | fold improvement in affinity over ABT2-108 [fold] | Binder
1 | 5.78 |  | B1
2 | 0.343 |  | B2
3 | 0.224 | 25 | B3
4 | 0.474 |  | B4
5 | 0.366 |  | B5
6 | 1.01 |  | B6
7 | 1.35 | 5 | B7
8 | 0.324 |  | B8
9 | 0.21 |  | B9
10 | 0.267 |  | B10
11 | 0.522 |  | B11
12 | 0.214 | 25 | B12
13 | 1.35 |  | B13

target: T3, human IL-1β; assay: cell-based or functional assay

Row | IL-1β IC50 | Binder
14 | 0.006 nM and 0.009 nM and 0.01 nM | B14
15 | 0.005 nM and 0.008 nM and 0.01 nM | B15
16 | 0.035 nM | B16
17 | 1 nM | B17
18 | 200 nM | B18

target: T1, human IL-1α; assay: cell-based or functional assay

Row | IL-1α IC50 | Binder
19 | 0.095 nM | B16
20 | 400 nM | B17
21 | 1000 nM and 1500 nM and 3000 nM | B19
22 | 1500 nM | B18

target: T3, human IL-1β; assay: cell-based or functional assay; remark: another data set of the same source

Row | MRC5 IL-1β [nM] | Binder
23 | 0.009 | B14
24 | 1 | B20
25 | 0.0094 | B15
26 | 0.023 | B16
27 | 0.975 | B17
28 | 0.094 | B21
29 | 22 | B19

target: T1, human IL-1α; assay: cell-based or functional assay; remark: another data set of the same source

Row | MRC5 IL-1α [nM] | Binder
30 | 259 | B14
31 | 20 | B20
32 | 75 | B15
33 | 0.032 | B16
34 | 400 | B17
35 | 2.7 | B21
36 | 1500 | B19
37 | 300 | B18

target: T2, human IL-1α; assay: Table 60 heading; dAbs from selection on antigen

Row | binding result | Binder
38 | binds | B22
39 | binds | B23
40 | binds | B24
41 | binds | B25
42 | binds | B26
43 | binds | B27
44 | binds | B28
45 | binds | B29
46 | binds | B30
47 | binds | B31
48 | binds | B32
49 | binds | B33
50 | binds | B34
51 | binds | B35
52 | binds | B36
